According to patent publication US20090291081A1 (AbbVie / Abbott, published 2009):

T1: human IL-1α (human, UniProt P01583 113-271)
T1 sequence (looked up): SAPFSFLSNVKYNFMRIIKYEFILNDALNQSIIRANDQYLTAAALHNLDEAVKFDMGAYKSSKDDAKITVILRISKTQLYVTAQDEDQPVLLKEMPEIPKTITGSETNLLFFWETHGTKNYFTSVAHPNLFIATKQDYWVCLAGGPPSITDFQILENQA


Experiments:
human IL-1α [1] = biological target: T1, human IL-1α; assay: cell-based or functional assay
human IL-1α [2] = biological target: T1, human IL-1α; assay: Table 62 IC50; RBA presumed
human IL-1β = biological target: T2, human IL-1β (human, UniProt P01584 117-269); assay: IC50 column of Table 63; receptor binding assay presumed
T2 construct: antigen of the ABT2 dAbs; also called hIL-1β; IL-1 beta

Row | ND50 (human IL-1α [1]) | IC50 (human IL-1α [2]) | IC50 (human IL-1β) | Binder
1 | 1000 nM | > 1000 nM | – | ABT1-165 (other, VK dAb) VL: DIQMTQSPSSLSASVGDRVTITCRASSSIRAGLAWYQQKPGKAPKLLIGPESGLQSGVPSRFSGSGSGTDFTLTISSLQPEDFATYYCGQGIDGPATFGQGTKVEIKR
2 | < 100 nM | 2 nM | – | ABT1-158 (other, VK dAb) VL: DIQMTQSPSSLSASVGDRVTITCRASRSIGRGLNWYQQKPGKAPKLLIGGWSGLQSGVPSRFSGSGSGTDFTLTISSLQPEDFATYYCAQASPLPTFGQGTKVEIKR
3 | 6.2 nM | 1000 nM | – | ABT1-162 (other, VK dAb) VL: DIQMTQSPSSLSASVGGRVTITCRASHYIRNRLHWYQQKPGKAPKLLIARGSALQSGVPSRFSGSGSGTDFTLTISSLQPEDFATYYCVQDGYLPPTFGQGTKVEIKR
4 | 7 nM | 5 nM | – | ABT1-122-18 (other, VK dAb) VL: DIQMTQSPSSLSASVGDRVTITCRASQPIWTELNWYQQKPGKAPKLLVYGSSSLQSGVPSRFSGSGSGTDFTLTISSLQPEDFATYYCQQFAYFPATFGQGTKVEIKR
5 | 100 nM | 80 nM | – | ABT1-122-21 (other, VK dAb) VL: DIQMTQSPSSLSASVGDRVTITCRASQPIWTELNWYQQKPGKAPKLLIYGSSSLQSGVPTRFSGSGSGTDFTLTISSLQPEDFATYYCQQFAYFPATFGQGTKVEIKR
6 | 18 nM | 10 nM | – | ABT1-122-511 (other, VK dAb) VL: DIQMTQSPSSLSASVGDRVTITCRASQPIWTELNWYQQKPGKAPKLLIYGSSSLQRGVPSRFSGSGSGTDFTLTISSLQPEDFATYYCKQFAYFPATFGQGTKVEIKR
7 | – | – | 100 nM | ABT2-65-1 (other, VH dAb) VH: EVQLLESGGGLVQPGGSLRLSCAASGFTFEDYQMGWVRQAPGKGLEWVSSISAMGNRTYYADSVKGRFTISRDDSKNTLYLQMKSLRAEDTAVYYCAQNLVRTQSKMWMFDYWGQGTLVTVSS
8 | – | – | 50 nM | ABT2-65-11 (other, VH dAb) VH: EVQLLESGGGLVQPGGSLRLSCAASGFTFRAYPMGWVRQAPGKGLEWVSSISAMGNRTYYADSVKGRFTISRDDSKNTLYLQMNSLRAEDTAVYYCANNLVRTQSKMWMFDYWGQGTLVTVSS
9 | – | – | 20 nM | ABT2-65-12 (other, VH dAb) VH: EVQLLESGGGLVQPGGSLRLSCAASGFTFREYWMGWVRQAPGKGLEWVSSISAMGNRTYYADSVKGRFTISRDDSKNTLYLQMNSLRAEDTAVYYCANNLVRTQSKMWMFDYWGQGTLVTVSS
10 | – | – | 100 nM | ABT2-65-15 (other, VH dAb) VH: EVQLLESGGGLVQPGGSLRLSCAASGFTFGIYQMGWVRQAPGKGLEWVSSISAMGNRTYYADSVKGRFTISRDDSKNTLYLQMNSLRAEDTAVYYCAQNLVRTQSKMWMFDYWGQGTLVTVSS
11 | – | – | 100 nM | ABT2-65-9 (other, VH dAb) VH: EVQLLESGGGLVHPGGSLRLSCAASGFTFRWYPMGWVRQAPGKGLEWVSSISAMGNRTYYADSVKGRFTISRDDSKNTLYLQMNSLRAEDTAVYYCAENLVRTQSKMWMFDYWGQGTLVTVSS
12 | – | – | 1000 nM | ABT2-65-14 (other, VH dAb) VH: EVQLLESGGGLVQPGGSLRLSCAAPGFTFPYYPMGWVRQAPGKGLEWVSSISAMGNRTYYADSVKGRFTISRDDSKNTLYLQMNSLRAEDTAVYYCAKNLVRTQSKMWMFDYWGQGTLVTVSS
13 | – | – | 20 nM | ABT2-65-2 (other, VH dAb) VH: EVQLLESGGGLVQPGGSLRLSCAASGFTFSTYNMGWVRQAPGKGLEWVSSISAMGNRTYYADSVKGRFTISRDDSKNTLYLQMNSLRAEDTAVYYCANNLVRTQSKMWMFDYWGQGTLVTVSS
14 | – | – | 200 nM | ABT2-65-16 (other, VH dAb) VH: EVQLLESGGGLVQPGGSLRLSCAASGFTFEDYQMGWVRQAPGKGLEWVSSISAMGNRTYYADSVKGRFTISRDDSKNTLYLQMNSLRAEDTAVYYCAENLVKWRSAEWMFDYWGQGTLVTVSS
15 | – | – | 20 nM | ABT2-65-13 (other, VH dAb) VH: EVQLLESGGGLVQPGGSLRLSCAASGFTFREYQMGWVRQAPGKGLEWVSSISAMGNRTYYADSVKGRFTISRDDSKNTLYLQMNSLRAEDTAVYYCANNLVRTQSKMWMFDYWGQGTLVTVSS
16 | – | – | 1000 nM | ABT2-63 (other, VK dAb) VL: DIQMTQSPSSLSASVGDRVTITCRASQSIRVFLSWYQQKPGKAPKLLIYNASYLQSGVPSRFSGSGSGTDFTLTISSLQPEDFATYYCQQRALYPTTFGQGTKVEIKR

Row | ND50 (human IL-1α [1]) | IC50 (human IL-1α [2]) | IC50 (human IL-1β) | Binder
17 | 5 nM | 3 nM | – | ABT1-141-43 (other, VK dAb) VL: DIQMTQSPSSLSASVGDRVTITCRASQWIQKQLAWYQQKPGKAPKLLIYSSSYLQSGVPPRFSGSGSGTDFTLTISSLQPEDFATYYCQQHLRVPMTFGQGTKVEIKR
18 | 1 nM | 1 nM | – | ABT1-141-70 (other, VK dAb) VL: DIQMTQSPSSLSASVGDRVTITCRASQWIQKQLAWYQQKPGKAPKLLIYSSSHLQSGVPSRFSGSGYGTDFTLTISSLQPEDFATYYCQQHLRVPMTFGQGTKVEIKR
19 | 1 nM | 1 nM | – | ABT1-141-47 (other, VK dAb) VL: DIQMTQSPSSLSASVGDRVTITCRANQWIQKQLAWYQQKPGKAPKLLIYSSSHLQSGVPSRFSGSGSGTDFTLTISSLQPQDFATYYCQQHLRVPMTFGQGTKVEIKR
20 | 20 nM | 10 nM | – | ABT1-141-51 (other, VK dAb) VL: DIQMTQSPSSLSASVGDRVTITCRASQWIQKQLAWYQQKPGKVPKLLIYSSSYLQSGVPSRFSGSGSGTDFTLTISSLEPEDFATYYCQQHLRVPMTFGQGTKVVIKR
21 | 100 nM | 100 nM | – | ABT1-141-45 (other, VK dAb) VL: DIQMTQSPSSLSASVGDRVTITCRASQWIQKQLAWYQQKPGKAPKLLIYSSSYLQSGVPSRFSGSGSGTDFTLTISSLQLEDFATYYCQQHLRVPMTLGQGTKVEIKR
22 | 5 nM | 3 nM | – | ABT1-141-49 (other, VK dAb) VL: DIQMTQSPSSLSASVGDRVTITCRASQWIQKQLAWYQLKPGKAPKLLIYSSSHSQSGVPSRFSGSGSGTDFTLTISSLQPEDFATYYCQQHLRVPMTFGQGTKVEIKR
23 | 1 nM | 3 nM | – | ABT1-141-77 (other, VK dAb) VL: DIQMTQSPSSLSASVGDRVTITCRANQWIQKQLAWYQQKPGKAPKLLIFSSSHLQSGVPSRFSGSGSGTDFTLTISSLQPQDFATYYCQQHLRVPMTFGQGTKVEIKR
24 | 0.7 nM | 3 nM | – | ABT1-141-78 (other, VK dAb) VL: DIQMTQSPSSLSASVGDRVTITCRANQWIQKQLAWYQQKPGKAPKLLIYSSSHLQSGVPSRFSGSGYGTDFTLTISSLQPQDFATYYCQQHLRVPMTFGQGTKVEIKR
25 | 1.7 nM | 3 nM | – | ABT1-141-80 (other, VK dAb) VL: DIQMTQSPSSLSASVGDRVTITCRANQWIQKQLAWYQQKPGKAPKLLIYSSSHLQSGVPSRFSGSGYGTDFTLTISSLQPEDFATYYCQQHLRVPMTFGQGTKVEIKR
26 | 10 nM | 50 nM | – | ABT1-141-53 (other, VK dAb) VL: DIQMTQSPSSLSASVGDRVTITCRASQWIQKQLAWYQLKPGKTPKLLIFSSSYLQSGVPSRFSGSGSGTDFTLTISSLQPEDFATYYCQQHLRVPMTFGQGTKVEIKR
27 | 1 nM | 3 nM | – | ABT1-141-48 (other, VK dAb) VL: DIQMTQSPSSLSASVGDRVTITCRASQWIQKQLAWYQQKPGKAPKLLIFSSSHLQSGVPSRFSGSGSGTDFTLTISSLQPEDFASYYCQQHLRVPMTFGQGTKVEIKR
28 | 20 nM | 10 nM | – | ABT1-141-50 (other, VK dAb) VL: DIQMTQSPSSLSASVGDRVTITCRASQWIQKQLAWYQQKPGKTPKLLIYSSSYLQSGVPSRFSGSGSGTDFTLTISSLQPEDFATYYCQQHLRVPMTFGQGTNVEIKR
29 | 2.4 nM | 3 nM | – | ABT1-141-79 (other, VK dAb) VL: DIQMTQSPSSLSASVGDRVTITCRANQWIQKQLAWYQQKPGKAPKLLIFSSSHLQSGVPSRFSGSGSGTDFTLTISSLQPEDFATYYCQQHLRVPMTFGQGTKVEIKR
30 | 1 nM | 1 nM | – | ABT1-141-76 (other, VK dAb) VL: DIQMTQSPSSLSASVGDRVTITCRANQWIQKQLAWYQQKPGKAPKLLIYSSSHLQSGVPSRFSGSGSGTDFTLTISSLQPEDFATYYCQQHLRVPMTFGQGTKVEIKR
31 | 8 nM | > 1000 nM | – | ABT1-161 (other, VK dAb) VL: DIQMTQSPSSLSASVGDRVTITCRASHAITGSLRWYQQKPGKAPKLLISGGSVLQSGVPSRFSGSGSGTDFTLTISSLQPEDFATYYCAQWLGGPMTFGQGTKVEIKR
32 | 100 nM | 400 nM | – | ABT1-148 (other, VK dAb) VL: DIQMTQSPSSLSASVGDRVTITCRASQSISSYLNWYQQKPGKAPKLLIGALSGLQSGVPSRFSGSGSGTDFTLTISSLQPEDFATYYCMQWYRHPSTFGQGTKVEIKR
